Assay results as given in article PMC4204924.

Biological target: thrombin (UniProt P00734;P00734 328-363;364-622)
Assay: competition

GGTTGGTGTGGTTGGTTT (structured_DNA) [thrombin aptamer (TA)]: binds.
